Reference: PMC7606108 (Acta Pharmaceutica Sinica. B, 2020)

Target: the molecule itself
Assay: sucrose density gradient analysis

B1: Acetylcholinesterase, endogenous in macrophages (enzyme, UniProt P21836 32-614, looked up)
chain: EGREDPQLLVRVRGGQLRGIRLKAPGGPVSAFLGIPFAEPPVGSRRFMPPEPKRPWSGVLDATTFQNVCYQYVDTLYPGFEGTEMWNPNRELSEDCLYLNVWTPYPRPASPTPVLIWIYGGGFYSGAASLDVYDGRFLAQVEGAVLVSMNYRVGTFGFLALPGSREAPGNVGLLDQRLALQWVQENIAAFGGDPMSVTLFGESAGAASVGMHILSLPSRSLFHRAVLQSGTPNGPWATVSAGEARRRATLLARLVGCPPGGAGGNDTELIACLRTRPAQDLVDHEWHVLPQESIFRFSFVPVVDGDFLSDTPEALINTGDFQDLQVLVGVVKDEGSYFLVYGVPGFSKDNESLISRAQFLAGVRIGVPQASDLAAEAVVLHYTDWLHPEDPTHLRDAMSAVVGDHNVVCPVAQLAGRLAAQGARVYAYIFEHRASTLTWPLWMGVPHGYEIEFIFGLPLDPSLNYTTEERIFAQRLMKYWTNFARTGDPNDPRDSKSPQWPPYTTAAQQYVSLNLKPLEVRRGLRAQTCAFWNRFLPKLLSATDTLDEAERQWKAEFHRWSSYMVHWKNQFDHYSKQERCSDL
In the case of B1, the “stoichiometry N” value is reported as 4.
